Assay results as given in patent publication US20200262877A1, “ION CHANNEL-BINDING PEPTIDES AND METHODS OF USE THEREOF” (priority 2017, published 2020).

Experiments:
[1] = target: T1, NR2B (Homo sapiens, UniProt Q13224); experiment: Ion channel panel (IonWorks Barracuda): NR2B; format: cell-based; conditions: 100% = no change, <100% = inhibition
T1 construct: host or cells: HEK293 or CHO
Outline: (§1)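 Peptides were tested in duplicate at final 20 μM and 200 nM, with concentration set by amino acid analysis, in HEPES-buffered saline. They were applied for at least 5 min to HEK293 or CHO cells transfected with each channel. Currents were expressed as % inhibition, 1-(Ipeptide/Icontrol)×100, or % activation, Ipeptide/Icontrol×100, against a channel-matched reference compound.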

[2] = target: T2, TRPV1 (Homo sapiens, UniProt Q8NER1); experiment: Ion channel panel (IonWorks Barracuda): TRPV1; format: cell-based; conditions: 100% = no change, <100% = inhibition
T2 construct: host or cells: HEK293 or CHO
Outline: as §1

[3] = target: T3, Nav1.7 (Homo sapiens, UniProt Q15858); experiment: cell-based; format: cell-based; conditions: 100% = no change; for Activity of Nav1.7 with peptide, expressed as a percentage of the reference compound: peptide at 0.2 μM; for Activity of Nav1.7 with peptide (percentage of the reference compound): peptide at 20 μM
T3 construct: host or cells: HEK293 or CHO
T3 sequence (Q15858 whole entry): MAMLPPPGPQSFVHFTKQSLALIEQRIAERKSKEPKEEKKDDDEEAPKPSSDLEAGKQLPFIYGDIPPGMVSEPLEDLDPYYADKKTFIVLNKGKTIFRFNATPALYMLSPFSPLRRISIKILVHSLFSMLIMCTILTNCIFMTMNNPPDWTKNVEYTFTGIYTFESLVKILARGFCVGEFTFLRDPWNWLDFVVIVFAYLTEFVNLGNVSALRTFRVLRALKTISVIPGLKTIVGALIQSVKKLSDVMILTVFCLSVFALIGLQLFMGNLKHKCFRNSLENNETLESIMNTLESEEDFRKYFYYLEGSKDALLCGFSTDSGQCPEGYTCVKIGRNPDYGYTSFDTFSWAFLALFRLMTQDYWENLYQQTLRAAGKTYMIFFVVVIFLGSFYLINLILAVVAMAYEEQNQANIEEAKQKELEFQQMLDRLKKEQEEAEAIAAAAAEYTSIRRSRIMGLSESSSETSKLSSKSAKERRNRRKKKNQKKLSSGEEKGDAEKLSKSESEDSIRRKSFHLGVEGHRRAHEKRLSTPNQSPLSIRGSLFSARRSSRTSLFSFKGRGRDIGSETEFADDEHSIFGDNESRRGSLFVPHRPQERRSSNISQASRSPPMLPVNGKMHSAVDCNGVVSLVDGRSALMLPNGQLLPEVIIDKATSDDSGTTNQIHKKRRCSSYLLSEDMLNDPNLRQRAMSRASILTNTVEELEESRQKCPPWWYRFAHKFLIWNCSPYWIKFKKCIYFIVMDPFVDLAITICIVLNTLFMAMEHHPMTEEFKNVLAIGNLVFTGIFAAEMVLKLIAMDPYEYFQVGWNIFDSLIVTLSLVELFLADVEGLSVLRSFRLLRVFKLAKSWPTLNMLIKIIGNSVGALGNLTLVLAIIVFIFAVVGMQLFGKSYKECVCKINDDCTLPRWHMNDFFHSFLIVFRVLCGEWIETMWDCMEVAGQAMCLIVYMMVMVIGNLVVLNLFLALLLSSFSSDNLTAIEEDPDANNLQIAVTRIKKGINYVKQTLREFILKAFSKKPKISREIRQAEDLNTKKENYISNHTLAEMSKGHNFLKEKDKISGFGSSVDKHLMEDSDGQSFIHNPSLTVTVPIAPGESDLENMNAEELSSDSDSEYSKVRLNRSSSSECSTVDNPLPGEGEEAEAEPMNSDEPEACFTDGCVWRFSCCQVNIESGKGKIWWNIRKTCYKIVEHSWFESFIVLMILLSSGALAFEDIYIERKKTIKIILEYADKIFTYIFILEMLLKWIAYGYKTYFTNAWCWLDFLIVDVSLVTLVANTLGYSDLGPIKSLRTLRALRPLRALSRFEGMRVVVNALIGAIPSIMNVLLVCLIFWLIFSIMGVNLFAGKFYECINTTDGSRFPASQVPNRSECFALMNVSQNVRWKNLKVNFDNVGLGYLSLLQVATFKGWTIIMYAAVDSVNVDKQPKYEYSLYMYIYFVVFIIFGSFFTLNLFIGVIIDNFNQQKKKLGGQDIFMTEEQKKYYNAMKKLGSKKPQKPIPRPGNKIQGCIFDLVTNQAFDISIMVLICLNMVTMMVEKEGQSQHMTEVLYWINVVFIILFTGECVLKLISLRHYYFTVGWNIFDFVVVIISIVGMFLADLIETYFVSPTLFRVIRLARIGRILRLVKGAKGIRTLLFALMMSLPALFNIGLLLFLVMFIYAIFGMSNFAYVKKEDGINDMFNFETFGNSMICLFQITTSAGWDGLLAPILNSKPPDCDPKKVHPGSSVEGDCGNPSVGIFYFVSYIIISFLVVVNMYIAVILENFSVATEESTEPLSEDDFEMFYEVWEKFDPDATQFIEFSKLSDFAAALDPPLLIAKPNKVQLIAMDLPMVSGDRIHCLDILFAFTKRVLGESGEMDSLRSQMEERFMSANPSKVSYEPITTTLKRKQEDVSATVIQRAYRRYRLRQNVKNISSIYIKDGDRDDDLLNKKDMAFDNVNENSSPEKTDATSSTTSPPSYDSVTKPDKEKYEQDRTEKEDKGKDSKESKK

[4] = target: T4, Cav2.2 (Homo sapiens, UniProt Q00975); experiment: cell-based; conditions: 100% = no change, <100% = inhibition
T4 construct: host or cells: HEK293 or CHO
Outline: as §1

[5] = target: T5, Kv2.1 (Homo sapiens, UniProt Q14721); experiment: cell-based; conditions: 100% = no change, <100% = inhibition
T5 construct: host or cells: HEK293 or CHO
Outline: as §1

[6] = target: T6, Cav2.1 (Homo sapiens, UniProt O00555); experiment: cell-based; conditions: 100% = no change, <100% = inhibition
T6 construct: host or cells: HEK293 or CHO
Outline: as §1

[7] = target: hERG (Homo sapiens, UniProt Q12809); experiment: in vitro; conditions: 100% = no change, <100% = inhibition
Outline: as §1

[8] = target: Nav1.5 (Homo sapiens, UniProt Q14524); experiment: in vitro; conditions: 100% = no change; for Activity of Nav1.5 with peptide, expressed as a percentage of the reference compound: peptide at 0.2 μM; for Activity of Nav1.5 with peptide (percentage of the reference compound): peptide at 20 μM
Sequence of Nav1.5 (Q14524 whole entry): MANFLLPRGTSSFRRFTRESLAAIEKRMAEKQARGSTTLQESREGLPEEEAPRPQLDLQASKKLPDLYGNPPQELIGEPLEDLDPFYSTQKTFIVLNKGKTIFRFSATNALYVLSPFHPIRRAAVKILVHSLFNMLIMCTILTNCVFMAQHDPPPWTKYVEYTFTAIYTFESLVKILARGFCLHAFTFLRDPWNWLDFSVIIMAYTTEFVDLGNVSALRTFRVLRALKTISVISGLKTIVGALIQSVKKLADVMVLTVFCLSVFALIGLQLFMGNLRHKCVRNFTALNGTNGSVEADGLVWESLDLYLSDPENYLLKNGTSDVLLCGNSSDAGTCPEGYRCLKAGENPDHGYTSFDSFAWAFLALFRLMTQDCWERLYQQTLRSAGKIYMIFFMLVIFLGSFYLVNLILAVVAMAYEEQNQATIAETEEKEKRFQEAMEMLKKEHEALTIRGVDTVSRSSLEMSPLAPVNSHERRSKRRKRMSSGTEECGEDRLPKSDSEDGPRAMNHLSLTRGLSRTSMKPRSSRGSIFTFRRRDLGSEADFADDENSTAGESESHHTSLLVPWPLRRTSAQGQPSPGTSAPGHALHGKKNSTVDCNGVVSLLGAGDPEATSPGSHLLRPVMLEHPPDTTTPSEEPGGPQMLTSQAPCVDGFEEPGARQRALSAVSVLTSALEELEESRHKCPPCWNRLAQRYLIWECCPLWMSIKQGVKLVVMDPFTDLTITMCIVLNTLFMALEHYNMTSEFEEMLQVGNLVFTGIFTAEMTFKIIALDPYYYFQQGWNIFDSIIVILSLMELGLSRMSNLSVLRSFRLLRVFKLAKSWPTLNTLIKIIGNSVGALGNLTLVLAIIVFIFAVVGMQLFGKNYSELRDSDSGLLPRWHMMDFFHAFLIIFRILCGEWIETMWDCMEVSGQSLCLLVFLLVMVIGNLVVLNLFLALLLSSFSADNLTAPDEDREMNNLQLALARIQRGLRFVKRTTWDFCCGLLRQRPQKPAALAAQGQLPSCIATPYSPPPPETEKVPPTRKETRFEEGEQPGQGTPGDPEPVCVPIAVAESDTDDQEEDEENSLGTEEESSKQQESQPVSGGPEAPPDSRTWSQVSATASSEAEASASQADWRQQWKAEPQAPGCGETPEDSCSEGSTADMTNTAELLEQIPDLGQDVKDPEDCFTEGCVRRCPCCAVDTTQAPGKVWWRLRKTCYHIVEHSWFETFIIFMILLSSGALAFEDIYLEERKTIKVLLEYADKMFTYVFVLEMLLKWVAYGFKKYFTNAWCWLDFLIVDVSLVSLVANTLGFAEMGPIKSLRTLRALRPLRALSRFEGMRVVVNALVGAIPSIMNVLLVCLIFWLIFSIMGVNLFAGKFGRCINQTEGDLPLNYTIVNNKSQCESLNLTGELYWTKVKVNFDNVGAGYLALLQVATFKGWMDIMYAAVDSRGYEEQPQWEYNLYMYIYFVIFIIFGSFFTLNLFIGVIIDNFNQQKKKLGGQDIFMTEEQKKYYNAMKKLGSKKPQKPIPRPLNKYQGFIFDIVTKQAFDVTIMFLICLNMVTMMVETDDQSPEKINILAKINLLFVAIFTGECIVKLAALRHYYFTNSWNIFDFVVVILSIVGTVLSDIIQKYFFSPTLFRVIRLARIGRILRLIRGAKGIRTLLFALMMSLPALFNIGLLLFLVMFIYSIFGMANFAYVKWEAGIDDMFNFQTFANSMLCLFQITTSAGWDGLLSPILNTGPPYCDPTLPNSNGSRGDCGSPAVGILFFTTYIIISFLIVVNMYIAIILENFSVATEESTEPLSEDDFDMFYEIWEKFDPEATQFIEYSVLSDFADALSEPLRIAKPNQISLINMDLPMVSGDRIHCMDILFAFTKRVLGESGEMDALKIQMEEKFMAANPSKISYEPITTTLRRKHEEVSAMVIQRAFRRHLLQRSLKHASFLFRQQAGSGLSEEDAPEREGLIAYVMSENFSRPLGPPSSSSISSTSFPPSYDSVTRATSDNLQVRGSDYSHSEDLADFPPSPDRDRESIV
Outline: as §1

[9] = target: T7, 5HT3a (Homo sapiens, UniProt P46098); experiment: Ion channel panel (IonWorks Barracuda): 5HT3a; format: cell-based
T7 construct: host or cells: HEK293 or CHO
T7 sequence (P46098 whole entry, looked up): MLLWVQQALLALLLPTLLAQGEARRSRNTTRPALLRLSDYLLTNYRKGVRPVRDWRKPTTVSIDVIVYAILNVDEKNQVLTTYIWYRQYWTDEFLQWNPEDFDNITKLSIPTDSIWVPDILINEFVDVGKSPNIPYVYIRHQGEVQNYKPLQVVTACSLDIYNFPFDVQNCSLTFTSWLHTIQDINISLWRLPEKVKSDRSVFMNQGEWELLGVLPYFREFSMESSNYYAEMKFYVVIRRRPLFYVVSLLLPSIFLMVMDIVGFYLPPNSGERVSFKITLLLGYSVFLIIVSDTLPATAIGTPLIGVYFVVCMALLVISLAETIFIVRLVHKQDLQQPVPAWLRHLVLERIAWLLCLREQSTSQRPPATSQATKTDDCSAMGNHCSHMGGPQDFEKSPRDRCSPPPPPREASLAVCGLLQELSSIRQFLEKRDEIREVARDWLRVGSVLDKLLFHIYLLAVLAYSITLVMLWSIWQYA
Outline: as §1

[10] = target: T8, Kir2.1 (Homo sapiens, UniProt P63252); experiment: Ion channel panel (IonWorks Barracuda): Kir2.1; format: cell-based; conditions: 100% = no change, <100% = inhibition
T8 construct: host or cells: HEK293 or CHO
Outline: as §1

[11] = system: GABA; experiment: Ion channel panel (IonWorks Barracuda): GABA; format: cell-based; conditions: 100% = no change, <100% = inhibition
Outline: as §1

[12] = target: T9, TRPA1 (Homo sapiens, UniProt O75762); experiment: Ion channel panel (IonWorks Barracuda): TRPA1; format: cell-based; conditions: 100% = no change, <100% = inhibition
T9 construct: host or cells: HEK293 or CHO
Outline: as §1

[13] = target: T10, α4β2 (Homo sapiens, UniProt P17787+P43681); experiment: Ion channel panel (IonWorks Barracuda): α4β2; format: cell-based; conditions: 100% = no change, <100% = inhibition
T10 construct: host or cells: HEK293 or CHO
Outline: as §1

[14] = target: T11, Kv1.2 (Homo sapiens, UniProt P16389); experiment: cell-based; format: cell-based; conditions: 100% = no change, <100% = inhibition
T11 construct: host or cells: HEK293 or CHO
Outline: as §1

[15] = target: T12, Kv1.1 (Homo sapiens, UniProt Q09470); experiment: cell-based; format: cell-based; conditions: 100% = no change, <100% = inhibition
T12 construct: host or cells: HEK293 or CHO
Outline: as §1

[16] = target: T13, Kv1.3 (Homo sapiens, UniProt P22001); experiment: cell-based; format: cell-based; conditions: 100% = no change, <100% = inhibition
T13 construct: host or cells: HEK293 or CHO
Outline: as §1

[17] = target: T14, α3β4 (Homo sapiens, UniProt P30926+P32297); experiment: Ion channel panel (IonWorks Barracuda): α3β4; format: cell-based; conditions: 100% = no change, <100% = inhibition
T14 construct: host or cells: HEK293 or CHO
T14 sequence (P30926 22-498): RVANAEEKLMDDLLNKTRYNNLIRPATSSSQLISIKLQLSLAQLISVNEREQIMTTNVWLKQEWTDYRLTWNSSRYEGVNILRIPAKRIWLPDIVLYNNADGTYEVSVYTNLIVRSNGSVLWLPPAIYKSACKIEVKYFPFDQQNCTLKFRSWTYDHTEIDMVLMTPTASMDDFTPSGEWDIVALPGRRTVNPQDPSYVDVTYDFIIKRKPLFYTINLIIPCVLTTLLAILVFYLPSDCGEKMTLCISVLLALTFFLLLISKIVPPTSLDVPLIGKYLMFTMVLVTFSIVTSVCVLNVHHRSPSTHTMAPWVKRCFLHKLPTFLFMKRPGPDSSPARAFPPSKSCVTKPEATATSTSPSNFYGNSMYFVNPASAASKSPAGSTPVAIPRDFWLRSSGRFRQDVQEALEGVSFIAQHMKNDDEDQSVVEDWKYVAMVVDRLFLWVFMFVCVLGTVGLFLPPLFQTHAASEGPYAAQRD
T14 sequence (P32297 32-505): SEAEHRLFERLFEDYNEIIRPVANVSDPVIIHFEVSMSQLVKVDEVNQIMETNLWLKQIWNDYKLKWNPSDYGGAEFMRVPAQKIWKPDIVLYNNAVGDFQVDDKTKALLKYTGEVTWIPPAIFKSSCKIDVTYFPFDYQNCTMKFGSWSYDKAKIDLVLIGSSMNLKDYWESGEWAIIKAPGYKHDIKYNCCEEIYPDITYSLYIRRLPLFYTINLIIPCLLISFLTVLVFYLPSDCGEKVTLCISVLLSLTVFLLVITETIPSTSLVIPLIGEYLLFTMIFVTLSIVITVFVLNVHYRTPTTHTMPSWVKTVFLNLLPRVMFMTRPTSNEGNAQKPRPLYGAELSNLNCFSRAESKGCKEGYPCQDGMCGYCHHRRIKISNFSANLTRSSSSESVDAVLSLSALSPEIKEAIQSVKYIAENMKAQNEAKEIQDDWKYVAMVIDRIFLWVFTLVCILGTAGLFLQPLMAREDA
Outline: as §1

[18] = target: T15, NR2A (Homo sapiens, UniProt Q12879); experiment: Ion channel panel (IonWorks Barracuda): NR2A; format: cell-based; conditions: 100% = no change, <100% = inhibition
T15 construct: host or cells: HEK293 or CHO
Outline: as §1

[19] = first of two Nav1.7 columns (probably TP1)
[20] = second of two Nav1.7 columns (probably TP2)
[21] = first of two Nav1.5 columns (probably TP1)
[22] = second of two Nav1.5 columns (probably TP2)

20 (GSQIDTNVKCSGSSKCVKICIDRYNTRGAKCINGRCTCYP) [compound 20]
Activity of NR2B with peptide, expressed as a percentage of the reference compound ([1]; peptide at 0.2 μM): 104% | Activity of NR2B with peptide (percentage of the reference compound) ([1]; peptide at 20 μM): 92% | Activity of TRPV1 with peptide, expressed as a percentage of the reference compound ([2]; peptide at 0.2 μM): 109% | Activity of TRPV1 with peptide (percentage of the reference compound) ([2]; peptide at 20 μM): 102% | Activity of Nav1.7 with peptide, expressed as a percentage of the reference compound [3, 19]: 92% | Activity of Nav1.7 with peptide, expressed as a percentage of the reference compound [3, 20]: 59% | Activity of Nav1.7 with peptide (percentage of the reference compound) [3, 19]: 81% | Activity of Nav1.7 with peptide (percentage of the reference compound) [3, 20]: 95% | Activity of Cav2.2 with peptide, expressed as a percentage of the reference compound ([4]; peptide at 0.2 μM): 110% | Activity of Cav2.2 with peptide (percentage of the reference compound) ([4]; peptide at 20 μM): 105% | Activity of Kv2.1 with peptide, expressed as a percentage of the reference compound ([5]; peptide at 0.2 μM): 99% | Activity of Kv2.1 with peptide (percentage of the reference compound) ([5]; peptide at 20 μM): 97% | Activity of Cav2.1 with peptide, expressed as a percentage of the reference compound ([6]; peptide at 0.2 μM): 100% | Activity of Cav2.1 with peptide (percentage of the reference compound) ([6]; peptide at 20 μM): 116% | Activity of hERG with peptide, expressed as a percentage of the reference compound ([7]; peptide at 0.2 μM): 90% | Activity of hERG with peptide (percentage of the reference compound) ([7]; peptide at 20 μM): 87% | Activity of Nav1.5 with peptide, expressed as a percentage of the reference compound [8, 21]: 103% | Activity of Nav1.5 with peptide, expressed as a percentage of the reference compound [8, 22]: 101% | Activity of Nav1.5 with peptide (percentage of the reference compound) [8, 21]: 102% | Activity of Nav1.5 with peptide (percentage of the reference compound) [8, 22]: 105% | Activity of 5HT3a with peptide (percentage of the reference compound) [9]: 91% | Activity of 5HT3a with peptide, expressed as a percentage of the reference compound [9]: 96% | Activity of Kir2.1 with peptide, expressed as a percentage of the reference compound ([10]; peptide at 0.2 μM): 89% | Activity of Kir2.1 with peptide (percentage of the reference compound) ([10]; peptide at 20 μM): 95% | Activity of GABA with peptide, expressed as a percentage of the reference compound ([11]; peptide at 0.2 μM): 109% | Activity of GABA with peptide (percentage of the reference compound) ([11]; peptide at 20 μM): 106% | Activity of TRPA1 with peptide, expressed as a percentage of the reference compound ([12]; peptide at 0.2 μM): 114% | Activity of TRPA1 with peptide (percentage of the reference compound) ([12]; peptide at 20 μM): 114% | Activity of a4b2 with peptide, expressed as a percentage of the reference compound ([13]; peptide at 0.2 μM): 113% | Activity of a4b2 with peptide (percentage of the reference compound) ([13]; peptide at 20 μM): 92% | Activity of Kv1.2 with peptide, expressed as a percentage of the reference compound ([14]; peptide at 0.2 μM): 115% | Activity of Kv1.2 with peptide (percentage of the reference compound) ([14]; peptide at 20 μM): 74% | Activity of Kv1.1 with peptide, expressed as a percentage of the reference compound ([15]; peptide at 0.2 μM): 94% | Activity of Kv1.1 with peptide (percentage of the reference compound) ([15]; peptide at 20 μM): 95% | Activity of Kv1.3 with peptide, expressed as a percentage of the reference compound ([16]; peptide at 0.2 μM): 80% | Activity of Kv1.3 with peptide (percentage of the reference compound) ([16]; peptide at 20 μM): 7% | Activity of a3b4 with peptide, expressed as a percentage of the reference compound ([17]; peptide at 0.2 μM): 103% | Activity of a3b4 with peptide (percentage of the reference compound) ([17]; peptide at 20 μM): 94% | Activity of NR2A with peptide, expressed as a percentage of the reference compound ([18]; peptide at 0.2 μM): 98% | Activity of NR2A with peptide (percentage of the reference compound) ([18]; peptide at 20 μM): 104%
